Experimental findings from PMC9209732, “Transcriptional Regulation of ING5 and its Suppressive Effects on Gastric Cancer” are described below.

The data set concerns the target YY1 (UniProt P25490 1-414). Briefly: EMSA; EMSA: 5-10 ug protein, 50 nM probe, 5% non-denaturing PAGE, streptavidin-HRP/ECL; buffer, salt, pH and temperature not stated. Conditions: protein: recombinant; tags: His (GST also stated in Results); label: 3' biotin; blunt.

YY1, sequence (P25490 whole entry): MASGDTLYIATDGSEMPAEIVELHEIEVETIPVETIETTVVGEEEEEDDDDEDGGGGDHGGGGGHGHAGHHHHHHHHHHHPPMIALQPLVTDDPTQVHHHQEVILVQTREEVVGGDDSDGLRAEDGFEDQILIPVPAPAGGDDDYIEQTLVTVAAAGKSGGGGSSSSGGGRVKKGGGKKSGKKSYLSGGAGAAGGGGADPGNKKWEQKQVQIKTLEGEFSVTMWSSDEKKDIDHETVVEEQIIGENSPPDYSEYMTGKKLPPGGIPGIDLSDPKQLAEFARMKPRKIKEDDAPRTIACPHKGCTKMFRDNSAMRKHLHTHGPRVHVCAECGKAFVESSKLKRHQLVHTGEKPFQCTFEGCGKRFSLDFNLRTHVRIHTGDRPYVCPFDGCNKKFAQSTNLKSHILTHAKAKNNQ

B1: ING5 promoter probe (-48 to 25) (dsDNA)
DNA 1: CGCTGGCACCGCCCCGCCCCCGCCTCCCGCGGCACCGCCCGCCCGCGCAGACCCCGAGCGCGGCCGCGGACGAA
DNA 2: TTCGTCCGCGGCCGCGCTCGGGGTCTGCGCGGGCGGGCGGTGCCGCGGGAGGCGGGGGCGGGGCGGTGCCAGCG
Turning to B1, the binding result is recorded as “binds”.
